According to patent US20060216339:

How the values were obtained:
[1] = test system: purified recombinant Elk1 protein (Elk1-GST fusion protein) [GST: P08515]
[2] = test system: recombinant mammalian ERK2 (MAPK p42 protein, bacterial recombinant, already containing phospho-tyrosine-185)

Sequence of purified recombinant Elk1 protein (Elk1-GST fusion protein) [GST: P08515] (P08515 whole entry, looked up, the tested form may be a part): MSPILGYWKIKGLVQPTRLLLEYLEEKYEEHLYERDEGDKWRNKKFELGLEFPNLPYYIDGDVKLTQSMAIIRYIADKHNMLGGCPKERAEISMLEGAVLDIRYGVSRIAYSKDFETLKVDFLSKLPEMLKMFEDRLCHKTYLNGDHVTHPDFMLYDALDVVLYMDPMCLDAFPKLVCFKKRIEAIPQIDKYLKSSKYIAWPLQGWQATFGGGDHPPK

Substance | phosphorylation of Elk1 at Ser^383 (Western blot with Ab^pElk1) [1] | ERK2 activity (production of phospho-Elk1) [2]
ERK2 activated by apPKG (doubly phosphorylated, T183 and Y185) | ERK2 activity was measured by the phosphorylation of Elk1 at Ser^383 | 
MEK1 (MAP kinase kinase 1)-GST fusion protein, activated by the catalytic subunit of MEKK1 |  | MEK1, which produces the maximally activated kinase
active apMAPK (phospho-apMAPK, dually phosphorylated at the T-E-Y site) | the apPKG-activated ap-MAPK phosphorylated its physiological substrate, Elk1, at the appropriate Ser^383 | 
